{
  "source": "patent US20240018255A1",
  "about": "(QURE BIOTECHNOLOGY SHANGHAI, published 2024)",
  "key": {"[1]": {"target": "T1, SIRPα V9 fusion Fc (mouse IgG2a) (human; mouse)", "T1 construct": "No linker mentioned between SIRPα and Fc", "T1 chain": "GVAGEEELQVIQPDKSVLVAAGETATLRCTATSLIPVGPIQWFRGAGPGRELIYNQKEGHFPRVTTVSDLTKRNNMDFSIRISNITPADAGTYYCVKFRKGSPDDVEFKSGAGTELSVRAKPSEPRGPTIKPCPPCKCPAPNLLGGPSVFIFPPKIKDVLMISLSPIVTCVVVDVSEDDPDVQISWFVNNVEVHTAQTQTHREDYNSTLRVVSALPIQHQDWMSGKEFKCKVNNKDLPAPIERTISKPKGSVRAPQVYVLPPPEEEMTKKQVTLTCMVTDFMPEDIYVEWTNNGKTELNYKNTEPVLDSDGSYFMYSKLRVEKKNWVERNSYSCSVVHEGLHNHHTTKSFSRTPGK", "test": "ELISA, plate coated with SIRPα V9-Fc (mouse IgG2a), anti-hFab secondary, OD450", "description": "(§1) The plate was coated with SIRPα V1/V2/V3/V4/V5/V6/V7/V8/V9/V10 at 1 μg/ml, 60 μl/well overnight at 4° C., and washed twice with PBST; blocked with 5% non-fat milk (Sangon) of 200 μl/well, incubated at room temperature for 1 h, and washed twice with PBST. Antibody was incubated at 10 μg/ml, diluted with 5 times for 10 gradients, 60 μl/well, incubated at room temperature for 1 h, and washed with PBST 5 times. Secondary antibody incubation: anti-hFab 1:10000, 60 μl/well, incubated at room temperature for 1 h, washed with PBST 5 times. Developing: TMB was equilibrated at room temperature for 1 h in advance, 100 μl/well, to develop for 10 min, 2M H₂SO₄ of 50 ul/well was used for termination, and reading was performed at 450 nm on microplate reader."}, "[2]": {"target": "T2, SIRPα V1 fusion Fc (mouse IgG2a) (human; mouse)", "T2 construct": "No linker mentioned between SIRPα and Fc", "T2 chain": "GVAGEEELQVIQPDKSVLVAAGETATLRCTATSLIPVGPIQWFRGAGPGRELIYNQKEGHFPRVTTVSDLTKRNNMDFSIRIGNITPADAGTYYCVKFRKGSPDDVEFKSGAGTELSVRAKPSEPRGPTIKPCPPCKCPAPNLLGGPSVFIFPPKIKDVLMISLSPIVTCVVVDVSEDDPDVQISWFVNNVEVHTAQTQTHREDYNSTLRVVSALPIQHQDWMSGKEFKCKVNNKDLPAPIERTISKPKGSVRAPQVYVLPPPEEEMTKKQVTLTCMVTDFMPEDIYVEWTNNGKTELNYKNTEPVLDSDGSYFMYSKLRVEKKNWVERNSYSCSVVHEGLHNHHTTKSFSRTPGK", "test": "ELISA, plate coated with SIRPα V1-Fc (mouse IgG2a), anti-hFab secondary, OD450", "description": "as §1"}, "[3]": {"target": "SIRPα V8 fusion Fc (mouse IgG2a) (human; mouse)", "test": "ELISA, plate coated with SIRPα V8-Fc (mouse IgG2a), anti-hFab secondary, OD450", "description": "as §1"}, "[4]": {"target": "SIRPα V7 fusion Fc (mouse IgG2a) (human; mouse)", "test": "ELISA, plate coated with SIRPα V7-Fc (mouse IgG2a), anti-hFab secondary, OD450", "description": "as §1"}, "[5]": {"target": "T3, human SIRPα naturally expressed on human renal clear cell adenocarcinoma 786-O cells (human, UniProt P78324 31-504)", "T3 construct": "whole, on cells", "T3 sequence (P78324 31-504)": "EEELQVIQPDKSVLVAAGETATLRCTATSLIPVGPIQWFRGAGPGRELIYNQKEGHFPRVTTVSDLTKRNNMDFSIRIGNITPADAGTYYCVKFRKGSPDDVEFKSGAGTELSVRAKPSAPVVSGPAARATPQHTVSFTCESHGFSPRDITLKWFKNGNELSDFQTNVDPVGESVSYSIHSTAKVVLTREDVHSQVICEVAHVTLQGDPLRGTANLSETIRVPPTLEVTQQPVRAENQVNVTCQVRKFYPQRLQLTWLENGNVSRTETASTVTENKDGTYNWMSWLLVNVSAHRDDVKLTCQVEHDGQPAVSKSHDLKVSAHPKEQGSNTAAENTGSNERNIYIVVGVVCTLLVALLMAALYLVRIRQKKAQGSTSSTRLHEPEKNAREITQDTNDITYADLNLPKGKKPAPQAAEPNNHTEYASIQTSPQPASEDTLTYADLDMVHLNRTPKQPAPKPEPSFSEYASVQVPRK", "test": "FACS on 786-O cells, PE-anti human FC secondary, MFI; unit from the axis Log[Abs,nM]", "description": "Blocking: the cells were resuspended with 2% FBS and were seeded into 96-well U bottom plate with 2E5/well, 200 μl/well, then subjected to ice bath for 1 h. Centrifugation was performed at 300 g for 3 min, and the supernatant was discarded. Antibody incubation: 10 μg/ml antibodies for incubation were diluted at 1:3, 100 μl/well, and subjected to ice bath for 1 h. Centrifugation was performed, and the supernatant was discarded. Pre-cooled PBS was added at 200 μl/well, centrifuged at 300 g for 5 min to discard supernatant, which was repeated twice. Secondary antibody: PE-anti human FC (1:200) 50 μl/well was subjected to ice bath for 0.5h. Centrifugation was performed and the supernatant was discarded. Pre-cooled PBS was added at 200 μl/well, centrifuged at 300 g for 5 min to discard supernatant, which was repeated 3 times. The mean fluorescence values were read on FACS."}, "[6]": {"target": "T4, SIRPα V6 fusion Fc (mouse IgG2a) (human; mouse)", "T4 construct": "No linker mentioned between SIRPα and Fc", "T4 chain": "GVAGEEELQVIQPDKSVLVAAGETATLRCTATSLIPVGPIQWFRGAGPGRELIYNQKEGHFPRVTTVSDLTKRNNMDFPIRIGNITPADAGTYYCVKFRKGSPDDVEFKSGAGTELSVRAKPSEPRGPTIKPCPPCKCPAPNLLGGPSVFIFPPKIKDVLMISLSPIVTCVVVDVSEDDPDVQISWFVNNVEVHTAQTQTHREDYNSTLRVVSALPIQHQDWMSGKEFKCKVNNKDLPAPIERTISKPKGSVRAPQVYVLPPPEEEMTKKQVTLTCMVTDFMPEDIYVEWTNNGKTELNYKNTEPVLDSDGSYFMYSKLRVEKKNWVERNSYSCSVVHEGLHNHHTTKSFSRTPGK", "test": "ELISA, plate coated with SIRPα V6-Fc (mouse IgG2a), anti-hFab secondary, OD450", "description": "as §1"}, "[7]": {"target": "T5, SIRPα V4 fusion Fc (mouse IgG2a) (human; mouse)", "T5 construct": "No linker mentioned between SIRPα and Fc", "T5 chain": "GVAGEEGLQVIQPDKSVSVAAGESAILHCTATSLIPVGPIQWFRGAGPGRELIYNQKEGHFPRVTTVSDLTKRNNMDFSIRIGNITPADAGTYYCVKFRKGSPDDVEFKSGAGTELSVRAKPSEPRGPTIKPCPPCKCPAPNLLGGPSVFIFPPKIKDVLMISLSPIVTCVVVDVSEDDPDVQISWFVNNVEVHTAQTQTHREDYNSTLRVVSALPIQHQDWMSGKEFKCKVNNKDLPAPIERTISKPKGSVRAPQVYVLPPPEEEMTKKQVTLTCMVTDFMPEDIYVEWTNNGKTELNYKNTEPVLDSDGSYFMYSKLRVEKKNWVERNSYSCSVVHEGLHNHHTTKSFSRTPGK", "test": "ELISA, plate coated with SIRPα V4-Fc (mouse IgG2a), anti-hFab secondary, OD450", "description": "as §1"}, "[8]": {"target": "T6, SIRPα V2 fusion Fc (mouse IgG2a) (human; mouse)", "T6 construct": "No linker mentioned between SIRPα and Fc", "test": "ELISA, plate coated with SIRPα V2-Fc (mouse IgG2a), anti-hFab secondary, OD450", "description": "as §1"}, "[9]": {"target": "SIRPα V10 fusion Fc (mouse IgG2a) (human; mouse)", "test": "ELISA, plate coated with SIRPα V10-Fc (mouse IgG2a), anti-hFab secondary, OD450", "description": "as §1"}},
  "data": [
    {"binder": "QP026249 (control antibody, variable regions of KWAR23, human IgG4/kappa) (antibody, also called KWAR23 (QP026249)) light: QIVLTQSPAIMSASPGEKVTLTCSASSSVSSSYLYWYQQKPGSSPKLWIYSTSNLASGVPARFSGSGSGTSYSLTISSMEAEDAASYFCHQWSSYPRTFGAGTKLELKRTVAAPSVFIFPPSDEQLKSGTASVVCLLNNFYPREAKVQWKVDNALQSGNSQESVTEQDSKDSTYSLSSTLTLSKADYEKHKVYACEVTHQGLSSPVTKSFNRGEC heavy: not shown", "values": [
      {"measurement": "EC50 (read off the curve)", "setting": "[1]", "value": "~0.2", "unit": "nM"},
      {"measurement": "EC50 (read off the curve)", "setting": "[2]", "value": "~0.2", "unit": "nM"},
      {"measurement": "EC50 (read off the curve)", "setting": "[3]", "value": "~0.2", "unit": "nM"},
      {"measurement": "EC50 (read off the curve)", "setting": "[4]", "value": "~0.1", "unit": "nM"},
      {"measurement": "EC50", "setting": "[5]", "value": 0.245, "unit": "nM"},
      {"measurement": "EC50 (read off the curve)", "setting": "[6]", "value": "~0.1", "unit": "nM"}
    ]},
    {"binder": "QP256253 (humanized anti-SIRPα antibody, QP163164 humanized clone) (antibody, human IgG4, V domains shown) VH: QVQLVQSGAEVKKPGASVKVSCKASGYTFTNYWINWVRQAPGQGLEWIAMIDPSDSETHYNQIFKDRATLTTDTSTSTAYMELRSLRSDDTAVYYCAMDYGSLYAMDYWGRGTLVTVSS VL: DIVLTQSPDSLAVSLGERATINCRASKSVSSSGYNYIFWYQQKPGQPPKLLIYLASNLDSGVPDRFSGSGSGTDFTLTISSLQAEDVAVYYCQHSRELPTFGQGTKLEIK", "values": [
      {"measurement": "EC50", "setting": "[5]", "value": 0.204, "unit": "nM"}
    ]},
    {"binder": "QP256279 (affinity-matured humanized anti-SIRPα antibody) (antibody, IgG4, V domains shown, full-length IgG with hIgG4 constant region and kappa CL; also called CHO71 (QP256279 stably expressed in CHOS cells)) VH: QVQLVQSGAEVKKPGASVKVSCKASGYTFTNYWINWVRQAPGQGLEWIAMIDPSDSETHYNQIFKDRATLTTDTSTSTAYMELRSLRSDDTAVYYCAMDYGSLYAMDYWGRGTLVTVSS VL: DIVLTQSPDSLAVSLGERATINCRASQSVRSSGYNWIFWYQQKPGQPPKLLIYLASNRDSGVPDRFSGSGSGTDFTLTISSLQAEDVAVYYCQHSRELPTFGQGTKLEIK", "values": [
      {"measurement": "EC50 (read off the curve)", "setting": "[7]", "value": "~0.06", "unit": "nM"},
      {"measurement": "EC50 (read off the curve)", "setting": "[2]", "value": "~0.08", "unit": "nM"},
      {"measurement": "EC50 (read off the curve)", "setting": "[8]", "value": "~0.07", "unit": "nM"},
      {"measurement": "EC50 (read off the curve)", "setting": "[4]", "value": "~0.07", "unit": "nM"},
      {"measurement": "EC50 (read off the curve)", "setting": "[9]", "value": "~0.07", "unit": "nM"}
    ]},
    {"binder": "QP2561589 (affinity-matured humanized anti-SIRPα antibody) (antibody, IgG4, V domains shown, hIgG4 constant region, kappa CL) VH: QVQLVQSGAEVKKPGASVKVSCKASGYTFTNYWINWVRQAPGQGLEWIAMIDPSDSETHYNQIFKDRATLTTDTSTSTAYMELRSLRSDDTAVYYCAMDYGSLYAMDYWGRGTLVTVSS VL: DIVLTQSPDSLAVSLGERATINCRASKSVSSSGYNYIFWYQQKPGQPPKLLIYLASNLDSGVPDRFSGSGSGTDFTLTISSLQAEDVAVYYCQESWELPTFGQGTKLEIK", "values": [
      {"measurement": "EC50", "setting": "[5]", "value": 0.188, "unit": "nM"}
    ]},
    {"binder": "QP2561586 (affinity-matured humanized anti-SIRPα antibody) (antibody, IgG4, V domains shown, hIgG4 constant region, kappa CL) VH: QVQLVQSGAEVKKPGASVKVSCKASGYTFTNYWINWVRQAPGQGLEWIAMIDPSDSETHYNQIFKDRATLTTDTSTSTAYMELRSLRSDDTAVYYCAMDYGSLYAMDYWGRGTLVTVSS VL: DIVLTQSPDSLAVSLGERATINCRASKSVSSSGYNYIFWYQQKPGQPPKLLIYLASNLDSGVPDRFSGSGSGTDFTLTISSLQAEDVAVYYCQESRELPTFGQGTKLEIK", "values": [
      {"measurement": "EC50", "setting": "[5]", "value": 0.217, "unit": "nM"}
    ]}
  ]
}
